# Laboratory results taken from publication PMC3901395, “Multivalent interactions of the SUMO-interaction motifs in RING finger protein 4 determine the specificity for chains of the SUMO” (Biochemical Journal, 2013).
# Changes are numbered by the printed parent chain.
# B1: RNF4 1–125 (RNF4-SIM domain, wt), P78317 SIM3/4mut (protein)
# chain: MSTRKRRGGAINSRQAQKRTREATSTPEISLEAEPIELVETAGDEIVDLTCESLEPVVAAAAHNDSAAAADERRRPRRNARRLPQDHADSCVVSSDDEELSRDRDVYVTTHTPRNARDEGATGLR
# B2: RNF4 1–125 (RNF4-SIM domain, wt), P78317 SIM3mut (protein)
# chain: B1 chain with A67V, A68V, A69I, A70V
# B3: RNF4 1–125 (RNF4-SIM domain, wt), P78317 SIM2/4mut (protein)
# chain: B1 chain with V47A, D48A, L49A, T50A, A59V, A60D, A61L, A62T
# B4: RNF4 1–125 (RNF4-SIM domain, wt), P78317 SIM1/3mut (protein)
# chain: B1 chain with I36A, E37A, L38A, V39A, A67V, A68V, A69I, A70V
# B5: RNF4 1–125 (RNF4-SIM domain, wt), P78317 SIM2/3mut (protein)
# chain: B1 chain with V47A, D48A, L49A, T50A, A67V, A68V, A69I, A70V
# B6: RNF4 1–125 (RNF4-SIM domain, wt), P78317 SIM2mut (protein)
# chain: MSTRKRRGGAINSRQAQKRTREATSTPEISLEAEPIELVETAGDEIAAAACESLEPVVVDLTHNDSVVIVDERRRPRRNARRLPQDHADSCVVSSDDEELSRDRDVYVTTHTPRNARDEGATGLR
# B7: RNF4 1–125 (RNF4-SIM domain, wt), P78317 SIM1/2mut (protein)
# chain: B6 chain with I36A, E37A, L38A, V39A
# B8: RNF4 1–125 (RNF4-SIM domain, wt), P78317 SIM4mut (protein)
# chain: B1 chain with A59V, A60D, A61L, A62T
# B9: RNF4 1–125 (RNF4-SIM domain, wt), P78317 SIM1/4mut (protein)
# chain: B1 chain with I36A, E37A, L38A, V39A, A59V, A60D, A61L, A62T
# Target: linear di-SUMO2 (2×SUMO2-ΔN11), P61956
# Assay: ITC (calorimetric titration)
# Details: chain shown with the change
# Chain of linear di-SUMO2 (2×SUMO2-ΔN11), P61956 (P61956 other isoform, or with tags, fused parts or gaps mutant): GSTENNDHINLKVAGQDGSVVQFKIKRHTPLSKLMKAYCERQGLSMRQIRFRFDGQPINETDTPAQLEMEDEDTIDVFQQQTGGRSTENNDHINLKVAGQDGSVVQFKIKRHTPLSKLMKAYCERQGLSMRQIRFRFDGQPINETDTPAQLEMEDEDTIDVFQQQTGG
row,Binder,Kd [µM]
1,B1,69
2,B2,91
3,B3,69
4,B4,52
5,B5,110
6,B6,118
7,B7,56

# Target: linear tri-SUMO, P61956
# Assay: ITC (calorimetric titration)
# Details: chain shown with the change
# Chain of linear tri-SUMO, P61956 (P61956 other isoform, or with tags, fused parts or gaps): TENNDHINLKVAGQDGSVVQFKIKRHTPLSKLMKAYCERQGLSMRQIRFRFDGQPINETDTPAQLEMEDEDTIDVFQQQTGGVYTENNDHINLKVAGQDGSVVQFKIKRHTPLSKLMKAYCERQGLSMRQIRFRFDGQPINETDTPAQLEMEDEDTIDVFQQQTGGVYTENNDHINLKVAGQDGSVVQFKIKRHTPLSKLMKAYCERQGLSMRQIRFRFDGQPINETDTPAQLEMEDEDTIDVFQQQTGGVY
row,Binder,Kd [µM]
1,B8,20
2,B2,29
3,B6,25

# Target: linear tetra-SUMO2 (4×SUMO2-ΔN11), P61956
# Assay: ITC (calorimetric titration)
# Details: chain shown with the change
# Chain of linear tetra-SUMO2 (4×SUMO2-ΔN11), P61956 (P61956 other isoform, or with tags, fused parts or gaps mutant): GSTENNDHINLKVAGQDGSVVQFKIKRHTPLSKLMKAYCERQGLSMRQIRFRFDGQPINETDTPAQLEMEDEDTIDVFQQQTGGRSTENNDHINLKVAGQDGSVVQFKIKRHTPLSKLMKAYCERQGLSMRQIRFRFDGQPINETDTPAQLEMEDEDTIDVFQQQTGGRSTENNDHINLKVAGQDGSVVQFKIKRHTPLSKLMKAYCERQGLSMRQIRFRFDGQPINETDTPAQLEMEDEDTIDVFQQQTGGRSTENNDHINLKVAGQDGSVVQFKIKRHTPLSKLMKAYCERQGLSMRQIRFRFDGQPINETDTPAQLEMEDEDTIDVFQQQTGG
row,Binder,Kd [µM]
1,B1,22
2,B8,2.8
3,B9,1.3
4,B2,2.2
5,B3,9.4
6,B4,2.4
7,B5,48
8,B6,2.1
